Values of other authors as cited in patent US7144982B2, “Polypeptides with therapeutic activity and methods of use” (University of Minnesota, priority 2000, dated 2006).

Conditions: literature value; read-out: LPS binding activity (IC50); cited from earlier work

B1: B/PI: 55 kD protein B/PI, bactericidal/permeability increasing protein (protein, UniProt P17213 32-487, looked up)
Bactericidal …: VNPGVVVRISQKGLDYASQQGTAALQKELKRIKIPDYSDSFKIKHLGKGHYSFYSMDIREFQLPSSQISMVPNVGLKFSISNANIKISGKWKAQKRFLKMSGNFDLSIEGMSISADLKLGSNPTSGKPTITCSSCSSHINSVHVHISKSKVGWLIQLFHKKIESALRNKMNSQVCEKVTNSVSSELQPYFQTLPVMTKIDSVAGINYGLVAPPATTAETLDVQMKGEFYSENHHNPPPFAPPVMEFPAAHDRMVYLGLSDYFFNTAGLVYQEAGVLKMTLRDDMIPKESKFRLTTKFFGTFLPEVAKKFPNMKIQIHVSASTPPHLSVQPTGLTFYPAVDVQAFAVLPNSSLASLFLIGMHTTGSMEVSAESNRLVGELKLDRLLLELKHSNIGPFPVELLQDIMNYIVPILVLPRVNEKLQKGFPLPTPARVQLYNVVLQPHQNFLLFGADVVYK
IC50: 20 nM
